Assay results: patent publication US20150337309A1

Tests used:
[1] = biological target: integrin αvβ3 on breast cancer cells (MCF7, 4T1, MDA-MB-231); assay: cell-based or functional assay
[2] = biological target: integrin αvβ5 on breast cancer cells (MCF7, 4T1, MDA-MB-231); assay: cell-based or functional assay

In the case of “periostin (recombinant protein purchased from R&D system, as coated on wells or added to cells) (ligand)”, the cell adhesion to periostin-coated wells after treatment with anti-αvβ3 antibody [1] is reported as 50 % of control and the cell adhesion to periostin-coated wells after treatment with anti-αvβ5 antibody [2] is reported as 50 % of control.
